pKd: −log10 of the molar value.
Tests used:
Assay in all cases: EMSA
Conditions in all cases: EMSA: 5 nM pUC19, 30 min at room temperature, pH 7.0, 50 mM MOPS/50 mM NaCl (low) or 200 mM MOPS/200 mM NaCl (high); 1% agarose in TAE
[1] = system: EncA encapsulin shell (Myxococcus xanthus)
[2] = system: EncA encapsulin shell;EncC cargo protein (Myxococcus xanthus;Myxococcus xanthus)
[3] = system: EncA encapsulin shell (Myxococcus xanthus); remark: listed apart in the source
[4] = system: EncA encapsulin shell;EncC cargo protein (Myxococcus xanthus;Myxococcus xanthus); remark: listed apart in the source

**Q.** pUC19 supercoiled plasmid was tested. Which pKd [1] did it give?
**A.** 6.52

**Q.** What about the pKd [2] of the same substance?
**A.** 6.40

**Q.** And the pKd [3]?
**A.** 6.52

**Q.** And the pKd [4]?
**A.** 6.52

Source: paper PMC9321382
